B1: GpH7-A5/GpH7-B3 variant G236_02A/GpL16-k0 (antibody, human IgG1, kappa)
heavy 1: not shown
heavy 2: not shown
light: DIVMTQSPLSLPVTPGEPASISCQASESLVHSNRNTYLHWYLQKPGQSPQLLIYKVSNRFSGVPDRFSGSGSGTDFTLKISRVEAEDVGVYYCSQNTHVPPTFGQGTKVEIERTVAAPSVFIFPPSDEQLKSGTASVVCLLNNFYPREAKVQWKVDNALQSGNSQESVTEQDSKDSTYSLSSTLTLSKADYEKHKVYACEVTHQGLSSPVTKSFNRGEC
notes: Heterodimerized IgG1; mutation in the GpH7-B3 chain only; also called He Ab
B2: GpH7-A5/GpH7-B3 variant N325_20W/GpL16-k0 (antibody, human IgG1, kappa)
heavy 1: not shown
heavy 2: not shown
light: DIVMTQSPLSLPVTPGEPASISCQASESLVHSNRNTYLHWYLQKPGQSPQLLIYKVSNRFSGVPDRFSGSGSGTDFTLKISRVEAEDVGVYYCSQNTHVPPTFGQGTKVEIERTVAAPSVFIFPPSDEQLKSGTASVVCLLNNFYPREAKVQWKVDNALQSGNSQESVTEQDSKDSTYSLSSTLTLSKADYEKHKVYACEVTHQGLSSPVTKSFNRGEC
notes: Heterodimerized anti-glypican-3 IgG1; mutation in one H chain only; also called He Ab
B3: GpH7-A5/GpH7-B3 variant N325_15Y/GpL16-k0 (antibody, human IgG1, kappa)
heavy 1: not shown
heavy 2: not shown
light: DIVMTQSPLSLPVTPGEPASISCQASESLVHSNRNTYLHWYLQKPGQSPQLLIYKVSNRFSGVPDRFSGSGSGTDFTLKISRVEAEDVGVYYCSQNTHVPPTFGQGTKVEIERTVAAPSVFIFPPSDEQLKSGTASVVCLLNNFYPREAKVQWKVDNALQSGNSQESVTEQDSKDSTYSLSSTLTLSKADYEKHKVYACEVTHQGLSSPVTKSFNRGEC
notes: as for B2
B4: GpH7-A5/GpH7-B3 variant P331_10E/GpL16-k0 (antibody, human IgG1, kappa)
heavy 1: not shown
heavy 2: not shown
light: DIVMTQSPLSLPVTPGEPASISCQASESLVHSNRNTYLHWYLQKPGQSPQLLIYKVSNRFSGVPDRFSGSGSGTDFTLKISRVEAEDVGVYYCSQNTHVPPTFGQGTKVEIERTVAAPSVFIFPPSDEQLKSGTASVVCLLNNFYPREAKVQWKVDNALQSGNSQESVTEQDSKDSTYSLSSTLTLSKADYEKHKVYACEVTHQGLSSPVTKSFNRGEC
notes: as for B2
B5: GpH7-A5/GpH7-B3 variant P331_20W/GpL16-k0 (antibody, human IgG1, kappa)
heavy 1: not shown
heavy 2: not shown
light: DIVMTQSPLSLPVTPGEPASISCQASESLVHSNRNTYLHWYLQKPGQSPQLLIYKVSNRFSGVPDRFSGSGSGTDFTLKISRVEAEDVGVYYCSQNTHVPPTFGQGTKVEIERTVAAPSVFIFPPSDEQLKSGTASVVCLLNNFYPREAKVQWKVDNALQSGNSQESVTEQDSKDSTYSLSSTLTLSKADYEKHKVYACEVTHQGLSSPVTKSFNRGEC
notes: as for B2
B6: GpH7-A5/GpH7-B3 variant P331_03V/GpL16-k0 (antibody, human IgG1, kappa)
heavy 1: not shown
heavy 2: not shown
light: DIVMTQSPLSLPVTPGEPASISCQASESLVHSNRNTYLHWYLQKPGQSPQLLIYKVSNRFSGVPDRFSGSGSGTDFTLKISRVEAEDVGVYYCSQNTHVPPTFGQGTKVEIERTVAAPSVFIFPPSDEQLKSGTASVVCLLNNFYPREAKVQWKVDNALQSGNSQESVTEQDSKDSTYSLSSTLTLSKADYEKHKVYACEVTHQGLSSPVTKSFNRGEC
notes: as for B2
B7: GpH7-A5/GpH7-B3 variant N325_14T/GpL16-k0 (antibody, human IgG1, kappa)
heavy 1: not shown
heavy 2: not shown
light: DIVMTQSPLSLPVTPGEPASISCQASESLVHSNRNTYLHWYLQKPGQSPQLLIYKVSNRFSGVPDRFSGSGSGTDFTLKISRVEAEDVGVYYCSQNTHVPPTFGQGTKVEIERTVAAPSVFIFPPSDEQLKSGTASVVCLLNNFYPREAKVQWKVDNALQSGNSQESVTEQDSKDSTYSLSSTLTLSKADYEKHKVYACEVTHQGLSSPVTKSFNRGEC
notes: as for B2
B8: GpH7-A5/GpH7-B3 variant L235_12R/GpL16-k0 (antibody, human IgG1, kappa)
heavy 1: not shown
heavy 2: not shown
light: DIVMTQSPLSLPVTPGEPASISCQASESLVHSNRNTYLHWYLQKPGQSPQLLIYKVSNRFSGVPDRFSGSGSGTDFTLKISRVEAEDVGVYYCSQNTHVPPTFGQGTKVEIERTVAAPSVFIFPPSDEQLKSGTASVVCLLNNFYPREAKVQWKVDNALQSGNSQESVTEQDSKDSTYSLSSTLTLSKADYEKHKVYACEVTHQGLSSPVTKSFNRGEC
notes: as for B1
B9: GpH7-A5/GpH7-B3 variant P331_15Y/GpL16-k0 (antibody, human IgG1, kappa)
heavy 1: not shown
heavy 2: not shown
light: DIVMTQSPLSLPVTPGEPASISCQASESLVHSNRNTYLHWYLQKPGQSPQLLIYKVSNRFSGVPDRFSGSGSGTDFTLKISRVEAEDVGVYYCSQNTHVPPTFGQGTKVEIERTVAAPSVFIFPPSDEQLKSGTASVVCLLNNFYPREAKVQWKVDNALQSGNSQESVTEQDSKDSTYSLSSTLTLSKADYEKHKVYACEVTHQGLSSPVTKSFNRGEC
notes: as for B2
B10: GpH7-A5/GpH7-B3 variant G236_03V/GpL16-k0 (antibody, human IgG1, kappa)
heavy 1: not shown
heavy 2: not shown
light: DIVMTQSPLSLPVTPGEPASISCQASESLVHSNRNTYLHWYLQKPGQSPQLLIYKVSNRFSGVPDRFSGSGSGTDFTLKISRVEAEDVGVYYCSQNTHVPPTFGQGTKVEIERTVAAPSVFIFPPSDEQLKSGTASVVCLLNNFYPREAKVQWKVDNALQSGNSQESVTEQDSKDSTYSLSSTLTLSKADYEKHKVYACEVTHQGLSSPVTKSFNRGEC
notes: as for B1
B11: GpH7-A5/GpH7-B3 variant S324_05P/GpL16-k0 (antibody, human IgG1, kappa)
heavy 1: not shown
heavy 2: not shown
light: DIVMTQSPLSLPVTPGEPASISCQASESLVHSNRNTYLHWYLQKPGQSPQLLIYKVSNRFSGVPDRFSGSGSGTDFTLKISRVEAEDVGVYYCSQNTHVPPTFGQGTKVEIERTVAAPSVFIFPPSDEQLKSGTASVVCLLNNFYPREAKVQWKVDNALQSGNSQESVTEQDSKDSTYSLSSTLTLSKADYEKHKVYACEVTHQGLSSPVTKSFNRGEC
notes: as for B2
B12: GpH7-A5/GpH7-B3 variant P331_07I/GpL16-k0 (antibody, human IgG1, kappa)
heavy 1: not shown
heavy 2: not shown
light: DIVMTQSPLSLPVTPGEPASISCQASESLVHSNRNTYLHWYLQKPGQSPQLLIYKVSNRFSGVPDRFSGSGSGTDFTLKISRVEAEDVGVYYCSQNTHVPPTFGQGTKVEIERTVAAPSVFIFPPSDEQLKSGTASVVCLLNNFYPREAKVQWKVDNALQSGNSQESVTEQDSKDSTYSLSSTLTLSKADYEKHKVYACEVTHQGLSSPVTKSFNRGEC
notes: as for B2
B13: GpH7-A5/GpH7-B3 variant P331_04F/GpL16-k0 (antibody, human IgG1, kappa)
heavy 1: not shown
heavy 2: not shown
light: DIVMTQSPLSLPVTPGEPASISCQASESLVHSNRNTYLHWYLQKPGQSPQLLIYKVSNRFSGVPDRFSGSGSGTDFTLKISRVEAEDVGVYYCSQNTHVPPTFGQGTKVEIERTVAAPSVFIFPPSDEQLKSGTASVVCLLNNFYPREAKVQWKVDNALQSGNSQESVTEQDSKDSTYSLSSTLTLSKADYEKHKVYACEVTHQGLSSPVTKSFNRGEC
notes: as for B2
B14: GpH7-A5/GpH7-B3 variant P331_16H/GpL16-k0 (antibody, human IgG1, kappa)
heavy 1: not shown
heavy 2: not shown
light: DIVMTQSPLSLPVTPGEPASISCQASESLVHSNRNTYLHWYLQKPGQSPQLLIYKVSNRFSGVPDRFSGSGSGTDFTLKISRVEAEDVGVYYCSQNTHVPPTFGQGTKVEIERTVAAPSVFIFPPSDEQLKSGTASVVCLLNNFYPREAKVQWKVDNALQSGNSQESVTEQDSKDSTYSLSSTLTLSKADYEKHKVYACEVTHQGLSSPVTKSFNRGEC
notes: as for B2
B15: GpH7-A5/GpH7-B3 variant N325_16H/GpL16-k0 (antibody, human IgG1, kappa)
heavy 1: not shown
heavy 2: not shown
light: DIVMTQSPLSLPVTPGEPASISCQASESLVHSNRNTYLHWYLQKPGQSPQLLIYKVSNRFSGVPDRFSGSGSGTDFTLKISRVEAEDVGVYYCSQNTHVPPTFGQGTKVEIERTVAAPSVFIFPPSDEQLKSGTASVVCLLNNFYPREAKVQWKVDNALQSGNSQESVTEQDSKDSTYSLSSTLTLSKADYEKHKVYACEVTHQGLSSPVTKSFNRGEC
notes: as for B2

Key:
[1] = biological target: T1, FcγRIIa H (human, UniProt P12318 34-217); test: SPR (Biacore); He/Con_2aH divided by He/Con_2b (FcγRIIa H over FcγRIIb)
T1 construct: extracellular domain; also called FcγRIIa type H; 2aH; not shown: His tag at the C terminus
T1 sequence (looked up): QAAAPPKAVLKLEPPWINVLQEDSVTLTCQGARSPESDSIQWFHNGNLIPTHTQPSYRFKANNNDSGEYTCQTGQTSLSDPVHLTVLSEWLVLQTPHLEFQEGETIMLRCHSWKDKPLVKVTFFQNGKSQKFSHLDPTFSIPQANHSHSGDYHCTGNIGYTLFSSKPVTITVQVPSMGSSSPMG

[2] = biological target: T1, FcγRIIa H; test: SPR (Biacore), antibody captured, FcγR as analyte; binding relative to GpH7-A5/GpH7-B3/GpL16-k0 = 100
[3] = biological target: T2, FcγRIIb (human, UniProt P31994 43-217); test: as above
T2 construct: extracellular domain; also called 2b; not shown: His tag at the C terminus
T2 sequence (looked up): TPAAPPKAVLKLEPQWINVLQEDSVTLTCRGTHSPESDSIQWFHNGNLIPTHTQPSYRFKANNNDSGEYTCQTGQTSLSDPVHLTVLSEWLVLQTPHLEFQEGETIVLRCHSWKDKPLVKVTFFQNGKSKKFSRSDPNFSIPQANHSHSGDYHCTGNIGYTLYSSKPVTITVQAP

[4] = biological target: T3, FcγRIIa H (FcγRIIa, allotype with His at position 131), extracellular domain with C-terminal His tag (human, UniProt P12318 34-217); test: SPR (Biacore); He/Con_2aH divided by He/Con_2b (FcγRIIb)
T3 construct: extracellular domain; also called FcgRIIa H; 2aH; not shown: His tag at the C terminus
T3 sequence (looked up): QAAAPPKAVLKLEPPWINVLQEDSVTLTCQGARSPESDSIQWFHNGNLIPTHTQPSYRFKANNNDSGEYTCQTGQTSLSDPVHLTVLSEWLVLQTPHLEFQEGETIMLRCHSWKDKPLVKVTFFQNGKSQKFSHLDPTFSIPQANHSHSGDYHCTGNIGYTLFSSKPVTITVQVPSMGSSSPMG

[5] = biological target: T3, FcγRIIa H (FcγRIIa, allotype with His …); test: SPR (Biacore), relative binding vs GpH7-A5/GpH7-B3/GpL16-k0
[6] = biological target: T4, FcγRIIb, extracellular domain with C-terminal His tag (human, UniProt P31994 43-217); test: as above
T4 construct: extracellular domain; also called FcgRIIb; 2b; not shown: His tag at the C terminus
T4 sequence (looked up): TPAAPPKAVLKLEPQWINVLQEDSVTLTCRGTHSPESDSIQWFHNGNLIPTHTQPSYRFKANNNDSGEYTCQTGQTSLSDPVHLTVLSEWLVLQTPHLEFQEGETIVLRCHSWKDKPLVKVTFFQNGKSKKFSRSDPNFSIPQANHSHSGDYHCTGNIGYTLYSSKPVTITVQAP

Binder	He_2aH/2b (IIaH/IIb) [1] [ratio]	He/Con_2aH [2]	He/Con_2b [3]	He_2aH/2b (IIaH/IIb) [4] [ratio]	He/Con_2aH [5]	He/Con_2b [6]
B1	1.44	139 % of control	96.5 % of control			
B2				0.28	47.2 % of HeCon Ab (=100)	169 % of HeCon Ab (=100)
B3				0.41	41.2 % of HeCon Ab (=100)	99.5 % of HeCon Ab (=100)
B4				0.75	87.1 % of HeCon Ab (=100)	116 % of HeCon Ab (=100)
B5				0.75	82.8 % of HeCon Ab (=100)	111 % of HeCon Ab (=100)
B6				0.7	82.5 % of HeCon Ab (=100)	119 % of HeCon Ab (=100)
B7				0.68	62.7 % of HeCon Ab (=100)	91.6 % of HeCon Ab (=100)
B8	3.16	30.3 % of control				
B9				0.75	86 % of HeCon Ab (=100)	114 % of HeCon Ab (=100)
B10	3.39	119 % of control	35.3 % of control			
B11				0.59	55.5 % of HeCon Ab (=100)	94.7 % of HeCon Ab (=100)
B12				0.68	77.4 % of HeCon Ab (=100)	114 % of HeCon Ab (=100)
B13				0.77	84.7 % of HeCon Ab (=100)	110 % of HeCon Ab (=100)
B14				0.73	84.5 % of HeCon Ab (=100)	116 % of HeCon Ab (=100)
B15				0.68	48 % of HeCon Ab (=100)	70.1 % of HeCon Ab (=100)

— patent publication US20150344570A1 (published 2015)
